Measurements as given in patent publication CN111320688A.

Legend:
[1] = target: 黄病毒属中的登革病毒、寨卡病毒、西尼罗河病毒和黄热病毒的E蛋白
[2] = target: 登革病毒1-4型、西尼罗河病毒和黄热病毒 (病毒颗粒表面E蛋白); assay: cell-based or functional assay

B1: TIB12抗体 (antibody, V domains shown)
VH: EVQLLESGGGLVQPGGSLRLSCAASGFTFSSQVMSWVRQAPGRGLEWVSVIHTGGSSTYYADSVKGRFTISRDNSKNTVFLHMNSLRVEDTALYYCAKGSAYGDYVEY
VL: QSVLTQPPSVSGAPGQRVTISCTGSSSNIGAGYDVHWYQQPPGTAPKLLIYGNNNRPSGVPDRFSGSKSGTSASLAITGLQAEDEADYYCQSYDSSLSGGV
**Q.** B1 was tested. Which Kd [1] did it give?
**A.** The Kd was 0.13 to 0.85 nM.

**Q.** What about the IC50 (中和能力; Vero细胞感染, 流式检测) [2] of the same binder?
**A.** The IC50 (中和能力; Vero细胞感染, 流式检测) was 0.04 to 1.31 µg/mL.
